The record followed here is patent publication US20220380442A1 (published 2022).

T1: Puumala virus (PUUV) glycoproteins Gn and Gc displayed on Expi293F cells (full-length M segment, plasmid … (Puumala virus))
T1 chain 1: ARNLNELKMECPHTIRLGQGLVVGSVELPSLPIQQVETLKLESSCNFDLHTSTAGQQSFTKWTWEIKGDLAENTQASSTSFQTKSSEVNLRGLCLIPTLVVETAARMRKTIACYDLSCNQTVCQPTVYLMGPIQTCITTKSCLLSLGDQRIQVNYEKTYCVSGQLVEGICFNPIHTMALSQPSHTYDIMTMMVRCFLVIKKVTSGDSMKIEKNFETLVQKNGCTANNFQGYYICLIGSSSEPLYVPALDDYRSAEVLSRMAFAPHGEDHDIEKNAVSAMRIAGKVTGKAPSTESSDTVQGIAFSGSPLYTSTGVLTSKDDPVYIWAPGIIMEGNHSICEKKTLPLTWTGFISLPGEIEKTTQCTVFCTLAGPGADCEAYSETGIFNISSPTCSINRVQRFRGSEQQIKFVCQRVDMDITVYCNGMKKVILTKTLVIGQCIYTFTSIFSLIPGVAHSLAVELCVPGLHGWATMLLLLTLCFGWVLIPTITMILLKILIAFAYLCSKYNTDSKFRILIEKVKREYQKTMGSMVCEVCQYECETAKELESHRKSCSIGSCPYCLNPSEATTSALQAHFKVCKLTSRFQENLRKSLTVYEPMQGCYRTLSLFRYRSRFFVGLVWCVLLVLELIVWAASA
T1 chain 2: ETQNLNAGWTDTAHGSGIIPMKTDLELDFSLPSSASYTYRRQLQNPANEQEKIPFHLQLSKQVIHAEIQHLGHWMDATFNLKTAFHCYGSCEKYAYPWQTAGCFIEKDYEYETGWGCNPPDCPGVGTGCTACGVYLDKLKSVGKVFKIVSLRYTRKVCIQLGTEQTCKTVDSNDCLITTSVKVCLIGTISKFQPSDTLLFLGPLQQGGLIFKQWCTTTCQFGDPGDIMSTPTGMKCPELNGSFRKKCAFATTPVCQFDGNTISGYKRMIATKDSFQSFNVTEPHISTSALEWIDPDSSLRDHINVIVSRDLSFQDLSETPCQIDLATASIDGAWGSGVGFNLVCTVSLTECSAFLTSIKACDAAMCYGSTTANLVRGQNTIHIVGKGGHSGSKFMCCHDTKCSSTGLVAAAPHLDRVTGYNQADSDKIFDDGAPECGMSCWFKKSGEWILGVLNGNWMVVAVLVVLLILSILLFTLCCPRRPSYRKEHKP

B1: ANDV-5 (antibody, V domains shown)
VH: QVQLLQSGAEVKKPGSSVRVSCQSSGDIYNYYGISWVRQAPGQGLEWMGGIIPVYGRPNYVQKFRGRVTFTVDKSTSTAYMELSTLRADDTAVYYCARDTARSHYFGSGNDYGMDVWGQGTTVIVSS
VL: DIVMTQSPLSLPVTPGEPASISCRSSQSLLHSNGFNFVDWYLQKPGQSPQLLIYLGSTRASGVPDRFSGSGSGTDFTLEISRVEAEDVGVYYCMQALQFPRTFGQGTKLDIK
B2: ANDV-59 (antibody, V domains shown)
VH: QVVLQESGPGLVKPSETLSLTCTVSGGSINNYYWSWIRQPPGKGLEWIGWLYYSGITTFNPSLKSRVTISIDTSKNQVSLNLRSVTAADTAVYYCARVQGSDSSGYYHLKSDWFDPWGQGIPVTVSS
VL: QSVLTQPPSVSAAPGQTVTISCSGSSSNIRHNFVSWYQQLPGTAPKLVIYENNKRPSGIPDRFSGSKSGTSATLGITGLQTGDEADYYCGTWDSSLSAPHWVFGGGTRLTVL
B3: ANDV-69 (antibody, V domains shown)
VH: QVHLQESGPGLVKPSETLSLTCAVSGYSISSGYCWGWIRQTPGKGLEWIGSIWHTGTTYYNPSLKSRVTISLDTSKNQFSLKLSSLTAADTAVYYCARAIYDSSGYSPFSGLDIWGQGTTVTISS
VL: QSVLTQPPSVSAAPGQKVTISCSGSSSNIGNNYVSWYQQVPGTAPKLLFYDNNKRPSGIPYRFSGSKSGTSATLAITGLQTGDEADYYCGTWDSSLNLWVFGGGTKLTVL
B4: ANDV-12 (antibody, V domains shown)
VH: EVQLVESGGGLVQPGGSLRLSCAASGFAFSSYWMTWVRQAPGKGLEFVANIKYDASEKYYVDSVKGRFTISRDNGRNSFYLQMNSLRAEDTAVYYCAVPGPGYSFAYDYWGQGTQVTVSS
VL: DIQMTQSPSSLSASVGDRITITCRASQSVGTYLNWYQQKPGKAPKLLIYEASSLQSGVPSRFSGSGSGTDFTLTISRLQPEDFATYSCQQSDIPPWTFGQGTKVEIK
B5: ANDV-54 (antibody, V domains shown)
VH: EVQLVESGGGVVQPGRSLRLSCAASGFTFSPYGMHWVRQAPGKGLEWVAVVWYDGNNKYYADSVKGRFTISRDNSKNTLYLQMNSLRAEDTAVYYCARENTPTYNSGYYFDYWGQGTLVTVSS
VL: QSALTQPASVSGSPGQSITISCTGTSSDVGSYDLVSWYQQHPGKAPKLIIYEGSKRPSGVSNRFSGSKSGNTASLTISGLQAEDEADYYCCSYAGSSTWVFGGGTKVTVL
B6: ANDV-2 (antibody, V domains shown)
VH: QVTLKESGPALVKPTQTLTLTCTFSGFSLSTSGMRVSWIRQPPGKALEWLARIDWDDDKFYSTSLKTRLTISKDTSKNQVVLIMTNMDPVDTATYYCARMMVGEGTFDYWGQGTLVTVSS
VL: DIQMTQFPSTLSASVGDRVTITCRASQDISSLLAWYQQKPGKAPKLLIYTASNLEGGVPSRFSGSGSGTEFTLTISSLQPDDFATYYCQQYIRYWTFGQGTKVEIK
B7: ANDV-44 (antibody, V domains shown)
VH: QVQLVQSGAEVRKPGASVKVSCKASGYTFTSNGVSWVRQAPGQGLEWMGWIAGYDGYTNYTQKFQGRVTMTTDTSTTTVYMELRSLRFDDTAVYYCARDEGLHNWKFNAMDVWGQGTTVIVSS
VL: EIVLTQSPGTLSLSPGERATLSCRASQSVSSSYLAWYQQKPGQAPRLLMSETSRRATGIPDRFSGSVSGTDFILTINRVDPEDFAVYYCQQYSSPPWTFGQGTKVEIK
B8: SNV-25 (antibody, V domains shown)
VH: QVQLQESGPGLVKPSGTLSLTCAVSGGSISSSNWWSWVRQPPGKGLEWIGEIYHSGSTNYNPSLKSRATISVDKSKNQFSLKLSSVTAADTAFYYCARARGEWLAHFDYWGQGTLVTVSS
VL: DIQMTQSPSTLSASVGDRVTITCRASQSISRWLAWYQQKPGKAPKLLIYKASSLESGVPSRFSGSGSGTEFTLTISSLQPDDFAIYYCQQYNTDKTFGQGTKVEIK
B9: SNV-56 (antibody, V domains shown)
VH: EVQLVESGGRLVRPGGSLRLSCAASGFTFSHYNMNWVRQAPGKGLEWVSSINSRNGYTYYADSVKGRFTISRDNAKNSLYLQMNSLRPEDTAVYYCARDPPLYSGYDLGYYYYGMDVWGQGTTVTVSS
VL: DIQMTQSPSTLSAFVGDRVTITCRANQNISKWLAWYQQKPGKAPNLLIHKASSLESGVPSRFSGSGSGTEFTLTISSLQPDDFATYSCQQYNSYPWAFGQGTRVEIK
B10: SNV-62 (antibody, V domains shown)
VH: QVLLVQSGAEVKKPGASVKVSCKASGYTFTSYFIHWVRQAPGQGLEWMGMINPISGNTNYAQKFQGRVTMTRDTSTRTVYMQLSSLTFEDTAVYSCVRWTTVPSSFDFWGQGTLVTVSS
VL: SYELTQPPSVSVSPGQTARITCSGDALPNQYVNWYQQKPGQAPVLMMFKDNQRPSGIPERFSGSRSGTTVTLSISGVQAEDEADYHCQSADRTATSVAFGGGTKLTVL

In one assay the target is T1, Puumala virus (PUUV) glycoproteins Gn …. The experiment in a line: flow.
By EC50 is commonly meant the concentration needed to bring the measured effect to its halfway point. On to B1, for which the 50% effective concentration (EC50) stood at 0.148 µg/mL. Still for that read-out and setting: under B2 stands 0.123 µg/mL; under B3, 0.541 µg/mL.

The target in another assay is T2, Sin Nombre virus (SNV) glycoproteins Gn and Gc displayed on the surface of Expi293F cells transfected with … (Sin Nombre virus). The assay can be described thus: flow.
B2 displayed a half-maximal effective concentration (EC50) of 0.0093 µg/mL.

For B4, the EC50 was determined as 0.016 µg/mL. Molecule B5 showed an EC50 of 3.67 µg/mL. Against the preceding molecule, the EC50 is about 230-fold higher. For B6, the half-maximal effective concentration (EC50) is 0.011 µg/mL. Same read-out and setting: under B7 stands 1.09 µg/mL.

A further assay addresses T2, Sin Nombre virus (SNV) glycoproteins Gn …. The experiment in a line: flow. The source holds these as a separate data set.
With B8, the concentration for a half-maximal effect (EC50) turned out to be 0.0072 µg/mL. B9: the EC50 turned out to be 0.066 µg/mL.

As for B10, the EC50 turned out to be 0.0026 µg/mL.
